# Assay results reported in FireProtDB.
# B1: Ribonuclease HI, P0A7Y4 (parent)
# chain: MLKQVEIFTDGSCLGNPGPGGYGAILRYRGREKTFSAGYTRTTNNRMELMAAIVALEALKEHCEVILSTDSQYVRQGITQWIHNWKKRGWKTADKKPVKNVDLWQRLDAALGQHQIKWEWVKGHAGHPENERCDELARAAAMNPTLEDTGYQVEV
# Variants of: B1
# Details: Escherichia coli (strain K12); pH 3; Thermal; CD; glycine-HCl 10 mM; reversible: yes; structure 2RN2; whole UniProt chain shown
Variant,Tm,"change of melting temperature, mutant - wild type (higher = more stable)",unfolding enthalpy (van 't Hoff)
K91R,49.8 °C,0.5 °C,119 kcal/mol
Y28F R29H G30A R31H,47.5 °C,-2.3 °C,92.5 kcal/mol
H62P,53.2 °C,3.4 °C,110 kcal/mol
K91R D94E K95G,53.8 °C,4 °C,105 kcal/mol
K91R K95G,55 °C,5.2 °C,114 kcal/mol
K95N,49.8 °C,2.9 °C,109 kcal/mol

# Same assay, conditions: Escherichia coli (strain K12); pH 5.5; 49.8 °C; Thermal; CD; Sodium acetate 20 mM; reversible: yes; structure 2RN2; whole UniProt chain shown
row,Variant,ddG of mutation (higher = less stable)
1,K91R,0 kcal/mol
2,K95N,-0.9 kcal/mol

# Same assay, conditions: Escherichia coli (strain K12); pH 5.5; Thermal; CD; Sodium acetate 20 mM; reversible: yes; structure 2RN2; whole UniProt chain shown
Variant,Tm,"change of melting temperature, mutant - wild type (higher = more stable)",unfolding enthalpy (van 't Hoff)
K91R,52 °C,0.1 °C,96.2 kcal/mol
H62P,56.1 °C,4.1 °C,102 kcal/mol
K95N,52 °C,3.2 °C,90 kcal/mol

# Same assay, conditions: Escherichia coli (strain K12); pH 3; 50.1 °C; Thermal; CD; glycine-HCl 10 mM; NaCl 0.1 M; reversible: yes; structure 2RN2; whole UniProt chain shown
row,Variant,ddG of mutation (higher = less stable)
1,E135K,1.1 kcal/mol
2,K117R,0.06 kcal/mol
3,A52V,-1.7 kcal/mol
4,H62D,-0.67 kcal/mol
5,H62P,-1 kcal/mol
6,H62R,0.03 kcal/mol
7,H62P T40A K122R,-0.52 kcal/mol
8,E119V R41C,-0.09 kcal/mol
9,Q76L,-0.24 kcal/mol
10,K95N,-0.88 kcal/mol

# Same assay, conditions: Escherichia coli (strain K12); pH 3; Thermal; CD; glycine-HCl 10 mM; NaCl 0.1 M; reversible: yes; structure 2RN2; whole UniProt chain shown
Variant,Tm,"change of melting temperature, mutant - wild type (higher = more stable)",unfolding enthalpy (van 't Hoff)
E135K,46.4 °C,-3.7 °C,99 kcal/mol
K117R,49.9 °C,-0.2 °C,97.1 kcal/mol
A52V,55.6 °C,5.5 °C,128 kcal/mol
H62D,52.3 °C,2.2 °C,118 kcal/mol
H62P,53.5 °C,3.4 °C,110 kcal/mol
H62R,50 °C,-0.1 °C,114 kcal/mol
H62P T40A K122R,51.8 °C,1.7 °C,109 kcal/mol
E119V R41C,50.4 °C,0.3 °C,101 kcal/mol
Q76L,50.9 °C,0.8 °C,110 kcal/mol
K95N,53 °C,2.9 °C,109 kcal/mol

# Same assay, conditions: Escherichia coli (strain K12); pH 5.5; 52.7 °C; Thermal; CD; Sodium acetate 20 mM; NaCl 0.1 M; reversible: yes; structure 2RN2; whole UniProt chain shown
row,Variant,ddG of mutation (higher = less stable)
1,E135K,0.22 kcal/mol
2,K117R,-0.03 kcal/mol
3,H62P,-1.1 kcal/mol
4,H62R,-0.36 kcal/mol
5,K95N,-0.88 kcal/mol

# Same assay, conditions: Escherichia coli (strain K12); pH 5.5; Thermal; CD; Sodium acetate 20 mM; NaCl 0.1 M; reversible: yes; structure 2RN2; whole UniProt chain shown
Variant,Tm,"change of melting temperature, mutant - wild type (higher = more stable)",unfolding enthalpy (van 't Hoff)
E135K,51.9 °C,-0.8 °C,89.9 kcal/mol
A52V,60.5 °C,7.8 °C,87.5 kcal/mol
H62D,52.1 °C,-0.6 °C,97.8 kcal/mol
H62P,56.8 °C,4.1 °C,102 kcal/mol
H62R,54 °C,1.3 °C,97.1 kcal/mol
H62P T40A K122R,55.8 °C,3.1 °C,96.9 kcal/mol
E119V R41C,56.9 °C,4.2 °C,107 kcal/mol
Q76L,53.8 °C,1.1 °C,81.2 kcal/mol

# Same assay, conditions: Escherichia coli (strain K12); pH 5.5; 25 °C; Urea; CD; sodium acetate 20 mM; KCl 50 mM; structure 2RN2; whole UniProt chain shown
Variant,ddG of mutation (higher = less stable),denaturant m value,unfolding free energy
I53L,1.4 kcal/mol,2.3 kcal/mol/M,8.3 kcal/mol
I53D,4.1 kcal/mol,2 kcal/mol/M,5.6 kcal/mol
I53F,3.9 kcal/mol,2 kcal/mol/M,5.8 kcal/mol

# Same assay, conditions: Escherichia coli (strain K12); pH 3; 49.8 °C; Thermal; CD; glycine-HCl 10 mM; reversible: yes; structure 2RN2; whole UniProt chain shown
row,Variant,ddG of mutation (higher = less stable)
1,Y28F R29H G30A R31H,0.7 kcal/mol
2,H62P,-1 kcal/mol
3,K91R D94E K95G,-1.2 kcal/mol
4,K91R K95G,-1.6 kcal/mol
5,K95N,-0.9 kcal/mol

# Same assay, conditions: Escherichia coli (strain K12); pH 5.5; 52 °C; Thermal; CD; glycine-HCl 10 mM; reversible: yes; structure 2RN2; whole UniProt chain shown
row,Variant,ddG of mutation (higher = less stable)
1,Y28F R29H G30A R31H,0.9 kcal/mol
2,K91R D94E K95G,-1.5 kcal/mol

# Same assay, conditions: Escherichia coli (strain K12); pH 5.5; Thermal; CD; glycine-HCl 10 mM; reversible: yes; structure 2RN2; whole UniProt chain shown
Variant,Tm,"change of melting temperature, mutant - wild type (higher = more stable)",unfolding enthalpy (van 't Hoff)
Y28F R29H G30A R31H,48.8 °C,-3.2 °C,80.5 kcal/mol
K91R D94E K95G,57.6 °C,5.6 °C,86.8 kcal/mol
K91R K95G,57.8 °C,5.8 °C,92 kcal/mol

# Same assay, conditions: Escherichia coli (strain K12); pH 5.5; 25 °C; GdnHCl; CD; Sodium acetate 20 mM; reversible: yes; structure 2RN2; whole UniProt chain shown
Variant,ddG of mutation (higher = less stable),denaturant m value,denaturant midpoint (higher = more stable),unfolding free energy
H62P,-0.74 kcal/mol,4.98 kcal/mol/M,1.98 M,9.89 kcal/mol

# Same assay, conditions: Escherichia coli (strain K12); pH 5.5; 52 °C; Thermal; CD; Sodium acetate 20 mM; reversible: yes; structure 2RN2; whole UniProt chain shown
row,Variant,ddG of mutation (higher = less stable)
1,H62P,-1.1 kcal/mol

# Same assay, conditions: Escherichia coli (strain K12); pH 5.5; 25 °C; GdnHCl; CD; glycine-HCl 10 mM; reversible: yes; structure 2RN2; whole UniProt chain shown
Variant,ddG of mutation (higher = less stable),denaturant m value,denaturant midpoint (higher = more stable),unfolding free energy
K91R D94E K95G,0.01 kcal/mol,4.36 kcal/mol/M,2.1 M,9.14 kcal/mol
